± gives the standard deviation of the averaged measurements.
System: ATP
Experiment: switch fluorescence ratio, 500 uM ATP over buffer (Cy3 cluster intensity, sum of 5 cycles each) (fold (ratio)); higher = stronger signal-on switching upon ATP binding; sequences stand for … in TCGTCGGCAGCGTCAGATGTGTATAAGAGACAGTTTTTTTTTTTTTTTTTTTTTTTTT…TC
Conditions: aptamer strand: ATP DNA aptamer (quencher-CACCTGGGGGAGTATTGCGGAGGAAGG + anchor), 100 nM annealed; ATP concentration: 500 uM
In short: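 Switching-strand clusters labelled with Cy3 on a modified Illumina MiSeq flow-cell were annealed to 100 nM quencher-labelled ATP aptamer, imaged in selection buffer, and re-imaged after 15 min with 500 uM ATP at 22 °C. This was done over five cycles with NaOH stripping and re-annealing in between. The fluorescence ratio is summed target-cycle over summed buffer-cycle Cy3 intensity per cluster, averaged per switch-domain sequence, excluding clusters outside 100-1000 RFU.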
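Also: ATP exposure 15 min at 22 °C before imaging.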

Sequence	switch fluorescence ratio
CGATGGTGTC	1.01 ± 0.036
GGGGCGAAGG	0.999 ± 0.038
GCATGTCAGT	0.9762 ± 0.00048
CATGGAAGGC	0.957 ± 0.03
ACTTTGGCC	1.0113 ± 0.00058
TTTTCACTCG	1.006 ± 0.0038
GTTACTCTGA	1.055 ± 0.0083
TTGGGGTCGT	0.974 ± 0.03
TGTGATTCTA	0.972 ± 0.017
AAGCCGGGGG	0.987 ± 0.019
AAGAAGGGAA	1.004 ± 0.0068
AGAGATGCTT	0.99 ± 0.032
CAATGATAGG	0.992 ± 0.017
AGTGGGCGCA	1.04 ± 0.042
CAGAGCCATA	1.05 ± 0.013
GGCCCCGTTT	1.04 ± 0.18
GGGTAAAGTG	0.9928 ± 0.0032
TTATTTTGTT	0.982 ± 0.034
TTCATAGGCT	1.03 ± 0.025
GGGGTAGAGG	0.977 ± 0.015
CTTTACTTCG	1.07 ± 0.027
TGGGGACGTT	0.971 ± 0.056
GCGCTGGCGG	1.01 ± 0.024

Sequence	switch fluorescence ratio
TGAGAGTTCA	1.006 ± 0.0032
AGGGTGGGTT	0.9771 ± 0.005
AGAATCAGGC	1.04 ± 0.17
ACATCAGATC	1 ± 0.011
TTATTGCTTA	0.97037 ± 0.00059
ATTTGAAAGT	1.02 ± 0.011
CTGTTTGTGA	0.995 ± 0.011
TCGAGAAAGG	0.98962 ± 0.00052
ATTATATAGC	0.996 ± 0.031
AGGGAAAATT	0.995 ± 0.011
AGCCAAAATA	1.04 ± 0.017
CTATCGGGAC	1.09 ± 0.026
ACGGGATTTT	1.03 ± 0.026
TTTGTGAGCA	1.06 ± 0.08
GGTCGTGGCA	0.969 ± 0.028
CAAGATCTGT	0.9925 ± 0.0031
TGCCGAGTGC	1.046 ± 0.0083
CATTCGCTGA	1.92 ± 0.19
CGGATCTTTG	0.977 ± 0.0033
GGGGCCATGG	0.9123 ± 0.006
AAGTTGTGCG	0.986 ± 0.029
GACTGAAAAA	0.981 ± 0.14
TACTCGAAAC	1.8 ± 0.97

Sequence	switch fluorescence ratio
AGTCGGTACG	0.994 ± 0.096
CTAGTCGTCG	1.02 ± 0.019
TATTAGGGAC	0.994 ± 0.032
CCTAGGGGGC	1.24 ± 0.29
AAACATAGCC	1.07 ± 0.011
GCCTTTTTGG	1.02 ± 0.022
AGAGTCGTTT	0.9853 ± 0.0046
GAAGTTCATG	1.03 ± 0.024
CGGTGATGGG	1.01 ± 0.031
ACTATGTGTG	0.99 ± 0.031
ATACTTTGCT	1 ± 0.034
TTGTTGAGTG	0.968 ± 0.028
ATAGGGGGTG	1.03 ± 0.034
CAGAGGGC	1.04 ± 0.04
TTAAATAGAT	1.01 ± 0.02
GTGAGTAGGT	0.974 ± 0.014
ACGGGCCCGA	1.02 ± 0.029
TTGGGGCTAG	1.02 ± 0.026
GAAGTTGGCA	0.9964 ± 0.0029
AACTCCAGGT	1.2 ± 0.011
TAAAACCGGG	1 ± 0.025
GTTGCAGTCA	0.949 ± 0.042
AGTTGAAACA	1.02 ± 0.016

Sequence	switch fluorescence ratio
TAAGTTTGCC	1.01 ± 0.04
AGTTACGGGT	1.033 ± 0.0032
ATCACTGGTA	1.03 ± 0.017
GTGTTAGCGA	0.997 ± 0.045
AGTTATACAA	1.01 ± 0.037
GGAGAATGCC	1.04 ± 0.053
GGGGGACTCT	0.986 ± 0.041
CTAGTTAAGT	0.991 ± 0.073
AATAGGGTTT	0.967 ± 0.011
ACACGGGGAG	1.01 ± 0.044
TAGGGTGTGC	1 ± 0.037
TGTAGTAAGT	1.01 ± 0.06
TCGAATGGGC	0.98 ± 0.037
TTCAATTGTG	0.9958 ± 0.0053
CACTTCGCCA	2.12 ± 0.17
TTTTACAGGT	1.01 ± 0.028
GGGAGGAGGC	0.889 ± 0.04
CAGCTTGGA	1.01 ± 0.029
CACCTAAAAT	1.03 ± 0.037
AGCGTGAGGG	1.02 ± 0.018
TTTTGTTATT	1.03 ± 0.068
TTTTGCAAGC	1.14 ± 0.13
TCGTTTACTT	1.06 ± 0.13

Sequence	switch fluorescence ratio
ACGGGGCTGG	1.02 ± 0.048
TTAGGGGGTA	1.12 ± 0.27
CCGTTTGAAA	1.01 ± 0.006
CGGCTACGGG	0.995 ± 0.046
CCTATTATTT	1 ± 0.051
GCAAGGGGAT	1.06 ± 0.11
CATCTTATGA	0.99 ± 0.0043
CGTGGGGTTG	1.01 ± 0.054
TACCGGATGG	1.03 ± 0.021
GGGGAACAGG	1.05 ± 0.06
TCCAGTATTA	0.9945 ± 0.0042
TTAGCCACTT	1.06 ± 0.066
TTGCTTAAGT	1.03 ± 0.075
GTCGGGCCCG	1.01 ± 0.06
GGTCGAAATT	1.15 ± 0.31
TGCAGTAGCG	0.9936 ± 0.0051
GAGTAGGGTT	0.983 ± 0.018
CGGGAGTTAG	1.02 ± 0.021
TTATTATTGT	0.982 ± 0.037
TACGGAGTCT	0.9814 ± 0.0075
AACAATGAAG	1.03 ± 0.022
GCGGCACGGC	1.01 ± 0.03
TGCGGTATGG	1.03 ± 0.017

Sequence	switch fluorescence ratio
CGGTGAATCT	1.01 ± 0.03
GGGGAGCGGG	0.99834 ± 0.00014
ATTAAGTGTA	0.98 ± 0.019
GAGTGTGGGG	0.96 ± 0.03
ACAGGCACGC	1.069 ± 0.0017
CGAGGCAGGT	1.51 ± 0.093
AGTCCGATGT	1.04 ± 0.038
CGCCTCGTAA	1.191 ± 0.01
ATCCTTGTGT	0.993 ± 0.02
GGAAATGTTT	1.01 ± 0.026
TACGCCTGGT	1.034 ± 0.0071
TCGGCGTTGA	0.992 ± 0.02
GGGGAAGCTT	1.04 ± 0.055
AGGCCGGTGA	1.01 ± 0.018
TTTTGTACAT	0.99 ± 0.039
AGATGTTTGG	0.956 ± 0.027
GTGCGAATGG	0.998 ± 0.016
ACCTGTGGGG	1 ± 0.027
CTAGCCGGGG	1.01 ± 0.031
TGGGATCGTT	0.98 ± 0.015
GGCAGAGGAG	1.01 ± 0.0063
TGAGGAAGGT	1.016 ± 0.009
CGGGTAGGGA	1.01 ± 0.022

Sequence	switch fluorescence ratio
GGTTATGTTG	0.977 ± 0.047
ATGAGAGGAT	0.9797 ± 0.0026
GGTTATAGTA	0.989 ± 0.042
ATCATCTGAA	0.987 ± 0.016
GACGGGTTTG	0.9915 ± 0.0074
CGCCCCTTGC	1.17 ± 0.031
TCTGGTTGGG	1.04 ± 0.064
TAGAAATTAA	0.977 ± 0.019
TAGTTACACA	1.04 ± 0.035
TTTGGGCCAT	1.04 ± 0.12
CGGTGTAGTC	1.012 ± 0.01
TTTTGCTTGG	1.01 ± 0.015
TACTCAGTAT	1.0208 ± 0.00084
TAGAATCGCT	1 ± 0.049
TAATCCCGGG	1.3 ± 0.4
TCATAGGGGC	1.04 ± 0.012
TTCGAGTTTG	0.9843 ± 0.0032
TGGGTGGAAG	1.042 ± 0.01
GGTACTCATT	0.994 ± 0.034
